{"source": "patent US20120108492A1", "about": "“LIGAND-SPECIFIC NON-ANTIBODY COMPOUNDS THAT INHIBIT CR2 ACTIVATION AND METHODS OF USE THEREOF” (The Regents of the University of Colorado, priority 2008, published 2012)"}
{"biological_target": "T1, wild-type MBP-CR2 SCR1-2 (human), P20023", "T1 chain": "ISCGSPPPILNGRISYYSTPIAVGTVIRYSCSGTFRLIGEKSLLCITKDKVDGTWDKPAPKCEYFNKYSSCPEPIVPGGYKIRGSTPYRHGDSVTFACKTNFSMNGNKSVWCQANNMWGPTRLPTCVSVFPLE", "test": "not given", "units": {"IC50": "µM"}}
{"binder": "CSEGSLKGC (modifications not checked)", "note": "[peptide EBV gp350 cp1]", "IC50": 150}
{"biological_target": "T1, wild-type MBP-CR2 SCR1-2 (human), P20023", "test": "competition ELISA: C3d on plate, MBP-CR2 SCR1-2 with increasing peptide, ⅓×PBS", "units": {"IC50": "µM"}}
{"binder": "APQALSSQYSRT (modifications not checked)", "note": "[peptide C3dp1.1]", "IC50": 70}
{"binder": "ISTSNPRH (modifications not checked)", "note": "[peptide C3dp2.2]", "IC50": 190}
{"binder": "APQHLSSQYSRT (modifications not checked)", "note": "[peptide C3dp1]", "IC50": 100}
{"binder": "TRSYQSSLHQPA (modifications not checked)", "note": "[peptide C3dp1.2]", "IC50": 70}
{"binder": "ISTSNPRAASTA (modifications not checked)", "note": "[peptide C3dp2.1]", "IC50": 150}
{"binder": "IATANPRHHSTA (modifications not checked)", "note": "[peptide C3dp2.3]", "IC50": 160}
{"binder": "DPKNHVH (modifications not checked)", "note": "[peptide C3dcp1.1]", "IC50": 95}
{"binder": "ISTSNPRHHSTA (modifications not checked)", "note": "[peptide C3dp2]", "IC50": 450}
{"binder": "APAHLSSQ (modifications not checked)", "note": "[control peptide]", "IC50": 700}
{"binder": "APQHLSSQ (modifications not checked)", "note": "[peptide C3dp1.3]", "IC50": 40}
